Molecular target: c-Myc;Max isoform (human;human, UniProt P01106;P61244 16-454;2-160, |)
Test: TIRF-PBM

Chain of c-Myc;Max isoform (P01106 16-454, chain 1 of 2): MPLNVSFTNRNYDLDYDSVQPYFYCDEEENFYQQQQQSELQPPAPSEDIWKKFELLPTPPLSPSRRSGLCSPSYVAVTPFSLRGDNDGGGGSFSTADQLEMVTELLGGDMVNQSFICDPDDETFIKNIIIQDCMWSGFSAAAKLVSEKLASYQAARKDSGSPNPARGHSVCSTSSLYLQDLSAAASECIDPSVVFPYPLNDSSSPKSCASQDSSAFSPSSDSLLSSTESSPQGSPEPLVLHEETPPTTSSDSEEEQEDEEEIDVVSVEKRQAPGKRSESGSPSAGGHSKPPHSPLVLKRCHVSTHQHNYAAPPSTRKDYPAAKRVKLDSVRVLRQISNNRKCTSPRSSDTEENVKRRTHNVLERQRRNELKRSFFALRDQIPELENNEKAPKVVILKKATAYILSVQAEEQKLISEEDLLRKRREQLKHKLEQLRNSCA
Chain of c-Myc;Max isoform (P61244 2-160, chain 2 of 2): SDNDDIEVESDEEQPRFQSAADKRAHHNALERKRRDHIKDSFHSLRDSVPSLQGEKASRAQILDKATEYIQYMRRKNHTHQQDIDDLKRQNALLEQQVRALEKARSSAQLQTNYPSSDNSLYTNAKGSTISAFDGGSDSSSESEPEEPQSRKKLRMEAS

B1: sequence 7 (12 A repeat) (dsDNA)
DNA 1: GCTACGAGCGCAAAAAAAAAAAAATGATAGCAAGCTCAAGTCAATCGGTCC
DNA 2: GGACCGATTGACTTGAGCTTGCTATCATTTTTTTTTTTTTGCGCTCGTAGC
modifications: 5' amino on one strand, coupled to hydrogel
binding result: binds

— PMC3553987
